{"source": "paper PMC11464762", "about": "“AXIN1 boosts antiviral response through IRF3 stabilization and induced phase separation” (Signal Transduction and Targeted Therapy, 2024)", "molecular_target": "T1, GST-IRF3-IR (GST-tagged IRF3 IR domain) (GST carrier left out. Limits are not printed: the paired constructs IRF3-DP and IRF3-IR are read as DBD + proline-rich region and IAD + C-terminal regulatory (response) region. The IR start at about r)", "T1 chain": "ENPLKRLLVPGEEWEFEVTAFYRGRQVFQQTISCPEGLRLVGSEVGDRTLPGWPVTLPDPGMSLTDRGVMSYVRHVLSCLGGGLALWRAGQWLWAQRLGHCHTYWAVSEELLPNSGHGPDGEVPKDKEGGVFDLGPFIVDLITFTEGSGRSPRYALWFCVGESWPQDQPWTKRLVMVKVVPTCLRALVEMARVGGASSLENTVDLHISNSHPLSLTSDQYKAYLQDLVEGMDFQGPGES", "assay": "ELISA; cell-free; purified GST-IRF3-IR and His-AXIN1-RGS (n = 3); which one was coated is not told", "details": "both partners purified", "data": [{"binder": "His-AXIN1-RGS (His-tagged AXIN1 RGS domain) (domain or fragment, UniProt O15169 88-211, looked up, RGS domain of AXIN1; source: purified) SLHSLLDDQDGISLFRTFLKQEGCADLLDFWFACTGFRKLEPCDSNEEKRLKLARAIYRKYILDNNGIVSRQTKPATKSFIKGCIMKQLIDPAMFDQAQTEIQATMEENTYPSFLKSDIYLEYT", "values": [{"measurement": "EC50", "result": 1.72, "unit": "nM"}]}]}
